Results as given in patent US20030138452A1.

Columns and labels:
[1] = target: chemokine receptors of MCP-3 on murine splenocytes and purified T cells; assay: cell-based or functional assay
[2] = target: chemokine receptor of IP-10 on murine splenocytes and purified T cells (murine) (UniProt O88410); assay: cell-based or functional assay
Chain of UniProt O88410 (O88410 whole entry): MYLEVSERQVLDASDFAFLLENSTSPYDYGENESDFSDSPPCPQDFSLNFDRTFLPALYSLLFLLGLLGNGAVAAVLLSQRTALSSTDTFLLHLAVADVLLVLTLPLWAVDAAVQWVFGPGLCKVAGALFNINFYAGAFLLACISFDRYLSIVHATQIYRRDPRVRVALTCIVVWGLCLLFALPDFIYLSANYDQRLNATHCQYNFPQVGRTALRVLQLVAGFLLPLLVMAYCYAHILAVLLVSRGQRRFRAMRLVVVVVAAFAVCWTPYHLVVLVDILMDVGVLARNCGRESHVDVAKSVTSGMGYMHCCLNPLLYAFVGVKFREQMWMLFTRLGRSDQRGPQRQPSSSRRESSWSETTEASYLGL

Row | Molecule | in vitro chemotaxis of murine lymphocytes (48-well microchemotaxis chamber): concentration of maximum activity [1] [µg/mL] | in vitro chemotaxis of murine lymphocytes (48-well microchemotaxis chamber): concentration of maximum activity [2] [µg/mL]
1 | MCP3FBscFv38MH (MCP-3 fused to scFv38 of the 38c13 lymphoma) (from UniProt Q03366 24-97) | 100 | –
2 | IP10FBscFv38MH (murine IP-10 fused to scFv38 of the 38c13 lymphoma) (protein, part only; not given: scFv38 VH and VL, tags, not shown: small tags and cut ends) chain, part: IPLARTVRCNCIHIDDGPVRMRAIGKLEIIPASLSCPRVEIIATMKKNDEQRCLNPESKTIKNLMKAFSQKRSKRAPEFNDQAPKSLE | – | 100
